The values that follow come from the RNAGym collection of RNA variant scans (doi:10.1073/pnas.2313332121).

First the molecules themselves.
B1: TPR t1 (parent)
chain: GACCAAUCUGCCCUCAGAGCUCGAGAACAUCUUCGGAUGCAGAGGAGGCAGGCUUCGGUGGCGCGAUAGCGCCAACGUCCUCAACCUCCAAUGCAUCCCACCACAUGAUGAUGCCUGAAGAGCCUUGGUUUUUUG

This series covers variants of B1. Put plainly: polymerase ribozyme fitness, log enrichment relative to wild type (log ratio); higher = more active; in vitro selection for triplet polymerase activity. A digest of the protocol:
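Frozen incubation at −7 °C formed the core of a single, triplicate in vitro selection round applied to PCR-built, transcribed mutant libraries of each subunit of a heterodimeric triplet polymerase ribozyme. Extended constructs were gel-excised, captured with streptavidin beads and amplified by RT-PCR, and input and output libraries were Illumina-sequenced with a filter of ≥10 input reads and ≥1 read per output. Fitness is the logarithm of genotype enrichment relative to wild-type enrichment, with inverse-variance-weighted replicate averaging, and the logarithm is base 2.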
Turning to GACCAAUCUGCCCUCAGAGCUCGAGAACAUCUUCGGAUGCAGAGGAGGCAGGCUUCGGUGGCGCGAUAGCGCCAACGUCCUCAACCUCCAAUGGAUCCCACCACAUGAUGAUGCCUGAAAAGCCUUGGUUUUUUG [C94G G120A], the “polymerase ribozyme fitness (log ratio)” value worked out at 0.357.

On to GACCAAUCUGCCCUCAGAGCUCGAGAACAUCUUCGGAUGGAGAGGGGGCAGGCUUCGGUGCCGCGAUAGCGCCAACGUCCUCAAUCUCCAAUGCAUCCCACCACAUGAUGAUGCCUGAAGAGCCUUGGUUUUUUG [C40G A46G G61C C85U], for which the “polymerase ribozyme fitness (log ratio)” value was -6.04.

For GACCAAUAUGCCCUCAGAGCUCGAGAACAUCUUCGGAUGUAGAGGAGGCAGGCUUCGGUGGCGCGAUAGCGCCAACGUCCUCAACCUCCAAUGCAUCCCACCACAUGAUGAUGCCUGAAGAGCCUUGGUUUUUUG [C8A C40U], the “polymerase ribozyme fitness (log ratio)” value is -0.324.

Turning to GACCAAUCUGCCCUCAGAGCUCGAGAACAUCUUCGGAUGCAGAGGAGGCUGGCUUCGGUGGCGCGAUAGCGCCAACGUCCACAACCUCCAAUGCAUCCCACCACAUGAUGAUGCCUGAAGAGCCUUGGUUUUUUG [A50U U81A], the “polymerase ribozyme fitness (log ratio)” value is -0.662.

On to GACCAAUCUGCCCUCAGAGCUCGAGAACAUCUUCGGUUCCAGAGGAGGCAGGCCUCGGGGGCGCGAUAGCGCCAACGUCCUCAACCUCAAAUGCAUCCCACCACAUGAUGAAGCCUGAAGCGCCUUGGUUUUUUG [A37U G39C U54C U59G C89A U112A A121C], for which the “polymerase ribozyme fitness (log ratio)” value is -4.68.

For the variant GACCAAUCUGCCUUCAGAGCUCGAGAACUUCUUCGGAUGCAGAGGUGGCAGGCUUAGGUGGCGCGAUAGCGCCAACGUCCUCAACCUCCAAUGCAUCCCACCACAUGAUGAUGCUUGAAGAGCCUUGGUUUUUUG [C13U A29U A46U C56A C115U], the “polymerase ribozyme fitness (log ratio)” value was -2.01.

GACCAAUCUACCCUCAGAGCUCGAGAACAUCUUCGGAUGCAGAGGAGGCAGGCUUCGGUGGCGCGAUAGCGCCAACGUCCUCAACCUCCAAUGCAUCCCACCACAUGAUGAUGCCUGAAGAACCUUGGUUUUUUG [G10A G122A]: the “polymerase ribozyme fitness (log ratio)” value turned out to be 0.549.

Consider GACCAAUCUGCCCUCAGAGCUCGAGAACAUCUUCGGAUGCAGAGGAGGCAGGAUUCGGUGGCGCGAUAUCGCCAACGUCCUCAACCUCCAAUGCAUCCCACCACAUGAUGAUGCCUGAAGAGCCUUGGUUUUUUG [C53A G69U], for which the “polymerase ribozyme fitness (log ratio)” value was determined as 1.4.

GACCAAUCUGCCCUCAGAGCUCGAGAACAUCUUCGGAUGCAGAGGAGGCAGGCUUCGGUGGCGCGAUAGCGGUAACGUCCUCAACCUCCAAUCCAUCCCACCACAUGAUGCUGCCUGAAGAUCCUUGGUUUUUUA [C72G C73U G93C A111C G122U G135A]: the “polymerase ribozyme fitness (log ratio)” value is -4.92.

On to GACGAAUCUGCCCUCAGAGCUCGAGAACAUCUUCGGAUGCAGAGGAGGCAGGCUUCGGUGUCGCGUUAGCGCCAACGUCCUCAACCUCCAAUGAAUCCCACCACAUGAUGAUGCCUGAAGAGUCUUGGUUUAUUG [C4G G61U A66U C94A C123U U132A], for which the “polymerase ribozyme fitness (log ratio)” value is -1.51.

Turning to GACCAAUCUGCCCUCAGAGCUCGAGGACAUCUUCGGAUGCAGAGGAGGCAGGCUUCGGUGGAGCGAUAGCGCCAACGUCCUCAACCUCUAAUGCAUCCCACCACAUGAUGAUGCCUGAAGAGCCUUGGUUUUUUG [A26G C62A C89U], the “polymerase ribozyme fitness (log ratio)” value was -4.69.

Turning to GACCAAUCUGCCCUCAGAGCUCGAGAACAUCUUCGGAUGCAGAGGAGGCAGGCUUCGGUGGCGCGAUAGUGACAACGUUCUCAACCUCCAAUGCAUCCCACCACAUGAUAAUGCCUGAAGAGCCUUGGUUUUUUG [C70U C72A C79U G110A], the “polymerase ribozyme fitness (log ratio)” value is -2.38.

In the case of GACCAAUCUGCCCUCAGGGCUCGAGAACAUCUUCGGAUGCAGAGGAGGCAGGCUUCUGUGGCGCGAUAGCGCCAACGUCCUCAACCUCCAAUGCAUCCCACCACAUGAUGAUGCCUGAAGAGCCUUGGUUUUUUG [A18G G57U], the “polymerase ribozyme fitness (log ratio)” value is -3.92.

In the case of GACCAAUCUGCCCUCAGAGCUCGAGAACGUCUUCGGAUGCAGAGGAGGCAGGCUUCGGUGGCGCGAUAGCGCCAACGUCCUCAACCUCCAAUGCAUCCCACCCCAAGAUGAUGCCUGAAGAGCCUUGGUUUUUUG [A29G A103C U106A], the “polymerase ribozyme fitness (log ratio)” value was -5.73.

On to GACCAAUCUGUCCUCAGAGCUCGAGAACAUCUUCGGAUGUAGAGGAGGCAGGCUUCGGUGGCGCGAUAGCGCCAACGUCCUCAACCUCCAAUGCAUCCCACCACAUGAUGAUGCCUGAAGAGCCUUGGUUUUUUG [C11U C40U], for which the “polymerase ribozyme fitness (log ratio)” value was -0.173.

For the variant GACCAAUCUGCCCUCAGAGCACGAGAACAUCUUCGGAUGCAGAGGAGGCAGGCUUCGGUGGGGCGAUAGCGCUAACGUCCUCAACCUCCAAUGCAUCCCACCACAUGAUGAUGCCUGAAGAGCCUUGGUUUUUUG [U21A C62G C73U], the “polymerase ribozyme fitness (log ratio)” value is -2.55.

As to GACCAAUCUGCCCUCAGAGCUCGAGAACAUCUUCGGAUGCAGAGAAGGCAGGCUUCGGUGGCGCGAUAACGCCAACGUCCUCAACCUCCAAUGCAUCCCACCACAUGAGGAUGCCUGCAGAGCCUUGGUUUUUUG [G45A G69A U109G A118C], the “polymerase ribozyme fitness (log ratio)” value is -6.05.

In the case of GACCAAUCUGCCCUCAGAGCUCGAGAACAUCUUCGGAUGCAGAGGAGGCAGGCUUCGGUGUCGCGAUAGCGCCAACGUCCUCAACCUCCAAUGCAUCCCACCACAUGAUGAUGCAUGAAGAGCCUUGGUUUUUUG [G61U C115A], the “polymerase ribozyme fitness (log ratio)” value came out at 0.264.

As for GACCAAUCUGACCUCAGAGCUUGAGAACAUCUUCGGAUGCAGAGGAGGCAGGCUUCGGUGGCGCGAUAGCGCCAACGUCCUCAACCUCCAUUGCAUCCCACUACAUGAUGAUGCUUGAAGAGCCUUGGUUUUUUU [C11A C22U A91U C102U C115U G135U], the “polymerase ribozyme fitness (log ratio)” value is -6.8.

In the case of GACCGAUCUGCCUUCAGAGCUCGAGAACAUCUUCGGAUGCAGAGGAGGCAGGCUUCGGUGGCGCGAUAGUGCCAACGUCCUCAACCUCCAAUGGAUCCCACCACAUGAUGAUGCCUGAAGAGCCUUGGUUUUUUG [A5G C13U C70U C94G], the “polymerase ribozyme fitness (log ratio)” value is -1.73.

As for GUCCAAUCUGCCCUCAGAGCUCGAGAACAUCUUCGGAUGCAGAGGAGGCAGGCUUUGGUGGCGCGAUAGCGCCAACGUCCUCAACCUCCAAUGCAUCCCACCACAUGAUGAUGCCUGAAGAGCCUUGGUUUUUUG [A2U C56U], the “polymerase ribozyme fitness (log ratio)” value is -2.27.
